Holding throughout (assay): radioligand binding
In test [1] the target is HLA-DR DRB1*0101 (human (endogenous in EBV transformed cell lines)).
The target in test [2] is HLA-DR DRB3*0101 (human (endogenous in EBV transformed cell lines)).
Test [3] addresses HLA-DR DRB1*1101 (human (endogenous in EBV transformed cell lines)).
Test [4] has as its target HLA-DR DRB4*0101 (human (endogenous in EBV transformed cell lines)).
Test [5] deals with HLA-DR DRB1*0301 (human (endogenous in EBV transformed cell lines)).
Test [6] has as its target HLA-DR DRB1*0401 (human (endogenous in EBV transformed cell lines)).
The target in test [7] is HLA-DR DRB1*1501 (human (endogenous in EBV transformed cell lines)).
Test [8] deals with HLA-DR DRB1*0405 (human (endogenous in EBV transformed cell lines)).
Test [9] addresses HLA-DR DRB1*1302 (human (endogenous in EBV transformed cell lines)).
Test [10] deals with HLA-DR DRB1*0901 (human (endogenous in EBV transformed cell lines)).
The target of test [11] is HLA-DR DRB1*0802 (human (endogenous in EBV transformed cell lines)).
In test [12] the target is HLA-DR DRB5*0101 (human (endogenous in EBV transformed cell lines)).
Test [13] has as its target HLA-DR DRB1*0701 (human (endogenous in EBV transformed cell lines)).
For test [14], the target named is HLA-DR DRB1*0404 (human (endogenous in EBV transformed cell lines)).

As for DENV3 NS5 523-539 (peptide), the half-inhibitory concentration (IC50) (as a rule, the concentration that inhibits the measured activity by half) in test [1] is 733 nM; in [2] it was 44.8 nM; in test [3], 170 nM; in test [4], 445 nM; in test [5], 9.29 nM; in [6], 7.25 nM.
On to DENV3 NS3 101-115 (peptide), for which the IC50 in test [1] was 201 nM; in test [7] it was 447 nM; in test [8] it was 725 nM.
Turning to DENV3 NS5 866-882 (peptide), the IC50 was 543 nM in test [9]; 148 nM in test [7]; 66.1 nM in test [10]; 421 nM in test [3]; 7.14 nM in test [11]; 178 nM in test [5].
With DENV3 NS5 489-505 (peptide), the IC50 in [1] was 231 nM; in test [2], 387 nM; in [8] it was 236 nM; in test [5] it was 118 nM; in test [12], 936 nM.
On to DENV3 NS5 477-493 (peptide), for which the IC50 in test [13] is 26.2 nM; in [1] it was 11.7 nM; in [14], 124 nM; in test [2] it was 25.9 nM; in test [10], 78.7 nM; in [8], 54.4 nM. Also, the IC50 worked out at 274 nM in test [4], 67.1 nM in test [6] and 56.2 nM in test [12].
Take DENV3 NS5 576-592 (peptide): the IC50 in test [9] amounted to 297 nM; in test [4], 108 nM.
For the substance DENV3 Envelope 346-360 (peptide), the IC50 stood at 67.6 nM in test [13]; 4.5 nM in test [1]; 14.5 nM in [9]; 332 nM in [7]; 288 nM in test [11]; 343 nM in test [6].
For the substance DENV3 NS5 769-785 (peptide), the IC50 in [1] turned out to be 27.9 nM; in test [14] it was 92.6 nM; in test [9], 4.5 nM; in test [10] it was 61.2 nM; in test [3], 78.7 nM; in test [8], 15.9 nM. For the same substance, the IC50 in [11] stood at 27.6 nM; in test [4] it was 212 nM; in test [5], 409 nM; in [6], 3.61 nM; in test [12], 113 nM.
With DENV3 Envelope 396-410 (peptide), the IC50 worked out at 296 nM in test [13]; 4.89 nM in test [1]; 258 nM in [7]; 424 nM in [2]; 39.9 nM in test [10]; 38.9 nM in test [3]. Also, the half-inhibitory concentration (IC50) in [11] was 106 nM; in test [5], 424 nM; in test [12] it was 26.8 nM.
For the substance DENV3 NS5 193-209 (peptide), the IC50 was determined as 144 nM in test [13], 87.5 nM in test [1], 15.1 nM in [9] and 199 nM in test [7].
Turning to DENV3 NS5 233-248 (peptide), the IC50 in test [1] came to 108 nM; in test [9], 34 nM; in [7] it was 307 nM; in [3] it was 15.9 nM; in test [8], 699 nM; in test [11], 159 nM. Further, the IC50 worked out at 617 nM in [4], 57 nM in [6] and 413 nM in test [12].
Consider DENV3 Envelope 156-170 (peptide), for which the IC50 in [1] is 463 nM; in test [14], 444 nM; in test [8], 45.5 nM; in test [4] it was 707 nM; in test [6], 7.66 nM.
Regarding DENV3 NS3 353-367 (peptide), the figures for the half-inhibitory concentration (IC50) in [13], in test [14] and in [8] were 87.4 nM, 858 nM and 884 nM, respectively.
Regarding DENV3 NS5 765-779 (peptide), the IC50 in test [1] stood at 40.8 nM; in test [9] it was 4.92 nM; in test [7] it was 118 nM; in test [2], 127 nM; in test [10], 61.2 nM; in test [11], 7.85 nM. Besides, the 50% inhibitory concentration (IC50) in test [12] is 726 nM.
DENV3 NS5 558-574 (peptide): the IC50 in test [13] amounted to 134 nM; in test [7], 401 nM; in [3], 173 nM; in [8], 667 nM; in test [5] it was 586 nM; in test [12], 391 nM.
Turning to DENV3 NS5 714-729 (peptide), the IC50 in test [9] turned out to be 10.6 nM; in test [7] it was 66.3 nM; in [10] it was 690 nM; in test [3], 671 nM; in [5] it was 36.8 nM; in test [12], 245 nM.
In the case of DENV3 NS5 747-763 (peptide), the IC50 in test [1] amounted to 53.7 nM; in test [14] it was 111 nM; in test [7], 167 nM; in test [10], 393 nM; in test [8] it was 38.6 nM.
As for DENV3 NS3 309-323 (peptide), the IC50 was determined as 47.8 nM in test [13]; 27 nM in test [1]; 350 nM in test [14]; 363 nM in test [7]; 129 nM in [10]; 32.1 nM in test [8]. Also, the concentration for half-maximal inhibition (IC50) was 30.8 nM in test [11], 9.15 nM in test [4] and 2.36 nM in test [6].
DENV3 NS3 237-251 (peptide): the IC50 in [14] was 310 nM; in [7], 638 nM; in test [10] it was 928 nM; in test [3], 807 nM; in test [8], 150 nM; in test [11] it was 35.8 nM. The IC50 in [6] came out at 13.1 nM; in test [12] it was 12.9 nM.
In the case of DENV3 NS1 85-99 (peptide), the IC50 amounted to 70.1 nM in test [13]; 55.8 nM in [1]; 483 nM in test [9]; 21.2 nM in test [7]; 41.9 nM in test [10]; 807 nM in test [3]. For the same substance, the IC50 in test [5] came out at 533 nM; in test [6] it was 87.7 nM.
With DENV3 NS3 433-447 (peptide), the half-maximal inhibitory concentration (IC50) in [9] is 23.7 nM; in test [2], 134 nM; in [5], 68.6 nM.
Regarding DENV3 NS1 173-187 (peptide), the IC50 turned out to be 25.9 nM in [1]; 57.5 nM in [2]; 608 nM in test [10]; 651 nM in test [3]; 787 nM in test [5]; 502 nM in [6]. Further, in test [12], the IC50 was determined as 753 nM.
As to DENV3 Envelope 161-175 (peptide), the IC50 turned out to be 509 nM in test [13]; 68.3 nM in test [9]; 691 nM in test [8]; 62.9 nM in test [11]; 115 nM in test [6].
For DENV3 Envelope 126-140 (peptide), the IC50 in test [1] is 980 nM; in test [7], 21.5 nM; in test [8], 89.7 nM; in [11], 37.1 nM; in test [4], 59.1 nM.
As to DENV3 NS3 185-199 (peptide), the IC50 in test [3] worked out at 71.8 nM; in [8] it was 972 nM; in test [11], 21 nM; in [4], 7.64 nM; in [5], 870 nM; in test [6], 171 nM.
As to DENV3 NS1 225-239 (peptide), the IC50 in test [9] was 58.9 nM; in test [6] it was 322 nM.
For DENV3 NS5 719-735 (peptide), the IC50 in test [1] was found to be 214 nM; in [14] it was 190 nM; in test [9] it was 229 nM; in test [8] it was 22.5 nM; in test [5], 44.1 nM.
As to DENV3 NS3 297-311 (peptide), the IC50 in test [13] turned out to be 77.2 nM; in test [14] it was 127 nM; in test [3], 35.3 nM; in test [8], 90 nM; in [6], 16.4 nM.
Turning to DENV3 NS3 277-291 (peptide), the IC50 in [1] was 383 nM; in test [9] it was 68.2 nM; in test [2], 4.42 nM; in [8], 402 nM; in test [11], 396 nM; in test [5], 37.3 nM. Also, in [6], the IC50 worked out at 142 nM.
DENV3 NS5 564-580 (peptide): the IC50 was determined as 18.8 nM in test [1]; 11.3 nM in [9]; 28 nM in test [7]; 576 nM in test [2]; 100 nM in test [10]; 344 nM in [3]. Moreover, the IC50 came to 222 nM in test [5], 390 nM in [6] and 305 nM in test [12].
Turning to DENV3 NS3 61-75 (peptide), the IC50 in test [9] stood at 84.5 nM; in [12] it was 143 nM.
Take DENV3 NS1 169-183 (peptide): the IC50 in [13] turned out to be 136 nM; in test [1], 226 nM; in [14], 457 nM; in test [7], 441 nM; in test [2] it was 747 nM; in test [10], 650 nM. Moreover, the IC50 was 277 nM in test [8], 878 nM in test [4] and 474 nM in test [6].
DENV3 NS1 117-131 (peptide): the IC50 in test [14] turned out to be 695 nM; in [2] it was 534 nM; in [8], 285 nM; in test [11], 56.3 nM; in test [6], 28.1 nM.
Turning to DENV3 Envelope 41-55 (peptide), the IC50 stood at 3.13 nM in [13]; 2.33 nM in [1]; 27.2 nM in [9]; 132 nM in [10]; 5.08 nM in [11]; 6.51 nM in test [4]. Moreover, the IC50 in [12] was 684 nM.

The values above are taken from publication PMC3794980.
